Test results as given in article PMC11886768 (2025).

B1: CRY1 (third protein in the mammalian three-hybrid assay) [Arabidopsis] / E-COP1 [Arabidopsis] (parent complex)
chain 1: MSGSVSGCGSGGCSIVWFRRDLRVEDNPALAAAVRAGPVIALFVWAPEEEGHYHPGRVSRWWLKNSLAQLDSSLRSLGTCLITKRSTDSVASLLDVVKSTGASQIFFNHLYDPLSLVRDHRAKDVLTAQGIAVRSFNADLLYEPWEVTDELGRPFSMFAAFWERCLSMPYDPESPLLPPKKIISGDVSKCVADPLVFEDDSEKGSNALLARAWSPGWSNGDKALTTFINGPLLEYSKNRRKADSATTSFLSPHLHFGEVSVRKVFHLVRIKQVAWANEGNEAGEESVNLFLKSIGLREYSRYISFNHPYSHERPLLGHLKFFPWAVDENYFKAWRQGRTGYPLVDAGMRELWATGWLHDRIRVVVSSFFVKVLQLPWRWGMKYFWDTLLDADLESDALGWQYITGTLPDSREFDRIDNPQFEGYKFDPNGEYVRRWLPELSRLPTDWIHHPWNAPESVLQAAGIELGSNYPLPIVGLDEAKARLHEALSQMWQLEAASRAAIENGSEEGLGDSAEVEEAPIEFPRDITMEETEPTRLNPNRRYEDQMVPSITSSLIRPEEDEESSLNLRNSVGDSRAEVPRNMVNTNQAQQRRAEPASNQVTAMIPEFNIRIVAESTEDSTAESSSSGRRERSGGIVPEWSPGYSEQFPSEENGIGGGSTTSSYLQNHHEILNWRRLSQTG
chain 2: MEEISTDPVVPAVKPDPRTSSVGEGANRHENDDGGSGGSEIGAPDLDKDLLCPICMQIIKDAFLTACGHSFCYMCIITHLRNKSDCPCCSQHLTNNQLYPNFLLDKLLKKTSARHVSKTASPLDQFREALQRGCDVSIKEVDNLLTLLAERKRKMEQEEAERNMQILLDFLHCLRKQKVDELNEVQTDLQYIKEDINAVERHRIDLYRARDRYSVKLRMLGDDPSTRNAWPHEKNQIGFNSNSLSIRGGNFVGNYQNKKVEGKAQGSSHGLPKKDALSGSDSQSLNQSTVSMARKKRIHAQFNDLQECYLQKRRQLADQPNSKQENDKSVVRREGYSNGLADFQSVLTTFTRYSRLRVIAEIRHGDIFHSANIVSSIEFDRDDELFATAGVSRCIKVFDFSSVVNEPADMQCPIVEMSTRSKLSCLSWNKHEKNHIASSDYEGIVTVWDVTTRQSLMEYEEHEKRAWSVDFSRTEPSMLVSGSDDCKVKVWCTRQEASVINIDMKANICCVKYNPGSSNYIAVGSADHHIHYYDLRNISQPLHVFSGHKKAVSYVKFLSNNELASASTDSTLRLWDVKDNLPVRTFRGHTNEKNFVGLTVNSEYLACGSETNEVYVYHKEITRPVTSHRFGSPDMDDAEEEAGSYFISAVCWKSDSPTMLTANSQGTIKVLVLAA

Variants of: B1
Assay: luciferase complementation imaging (LCI); transfected N. benthamiana leaves, n = 14, CCD camera; value is the mean ('+'); median about 0.44, box about 0.22-0.68; parent: 1; read off a plot
A ratio to parent of roughly 0.43 was found for chain 1 V548A, chain 1 P549A in this work.
